According to patent publication US20240270821A1, “GIP/GLP1/GCG TRI-RECEPTOR AGONISTS AND USES THEREOF” (priority 2023, published 2024):
One block for each binder: values may come before it. Starred links: 1 amine or outer side, 2 acyl side, 3 side chain; linkers in the order of their positions; H or OH if unused. Non-standard residues stand in square brackets, D forms with d. Groups on a side chain read outwards from the residue. No end group written: not given here. *: point of attachment. C20 diacid = O=C(O)CCCCCCCCCCCCCCCCCCC(=O)*; C18 diacid = O=C(O)CCCCCCCCCCCCCCCCC(=O)*; αMePhe(2-F) = C[C@](N)(Cc1ccccc1F)C(=O)O; γGlu = O=C(O)[C@H](CCC(=O)[*:2])N[*:1]; NMeY = CN[C@@H](Cc1ccc(O)cc1)C(=O)O; αMeF = C[C@](N)(Cc1ccccc1)C(=O)O; αMeL = CC(C)C[C@](C)(N)C(=O)O; Orn = NCCC[C@H](N)C(=O)O; AEEA = NCCOCCOCC(=O)O; Aib = CC(C)(N)C(=O)O

Tests used:
Assay in all cases: cell-based or functional assay
[1] = biological target: Pro-Link-tagged Human GLP-1R (human) (UniProt P43220)
hGLP-1R = hGLP-1R (Homo sapiens, UniProt P43220)
[2] = biological target: T1, human GIP receptor (human) (UniProt P48546)
T1 sequence (looked up): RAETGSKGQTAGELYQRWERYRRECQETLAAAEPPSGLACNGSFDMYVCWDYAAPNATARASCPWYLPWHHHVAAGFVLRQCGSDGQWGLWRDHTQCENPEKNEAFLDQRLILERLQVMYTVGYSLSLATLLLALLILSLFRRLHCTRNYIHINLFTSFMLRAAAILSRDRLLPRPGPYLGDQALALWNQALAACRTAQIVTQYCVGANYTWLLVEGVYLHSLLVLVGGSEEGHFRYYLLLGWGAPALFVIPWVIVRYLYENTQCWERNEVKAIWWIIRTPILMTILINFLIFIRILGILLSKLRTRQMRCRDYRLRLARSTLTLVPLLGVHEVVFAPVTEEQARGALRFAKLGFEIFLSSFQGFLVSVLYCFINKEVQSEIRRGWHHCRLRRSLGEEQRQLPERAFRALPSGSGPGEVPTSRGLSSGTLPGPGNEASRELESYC

[3] = biological target: human glucagon receptor (human) (UniProt P47871)
[4] = biological target: human GLP-1R (SNAP-GLP-1R expressed in HEK293 cells) (human) (UniProt P43220)
human GLP-1R (SNAP-GLP-1R expressed in HEK293 cells) (human), sequence (P43220 24-463): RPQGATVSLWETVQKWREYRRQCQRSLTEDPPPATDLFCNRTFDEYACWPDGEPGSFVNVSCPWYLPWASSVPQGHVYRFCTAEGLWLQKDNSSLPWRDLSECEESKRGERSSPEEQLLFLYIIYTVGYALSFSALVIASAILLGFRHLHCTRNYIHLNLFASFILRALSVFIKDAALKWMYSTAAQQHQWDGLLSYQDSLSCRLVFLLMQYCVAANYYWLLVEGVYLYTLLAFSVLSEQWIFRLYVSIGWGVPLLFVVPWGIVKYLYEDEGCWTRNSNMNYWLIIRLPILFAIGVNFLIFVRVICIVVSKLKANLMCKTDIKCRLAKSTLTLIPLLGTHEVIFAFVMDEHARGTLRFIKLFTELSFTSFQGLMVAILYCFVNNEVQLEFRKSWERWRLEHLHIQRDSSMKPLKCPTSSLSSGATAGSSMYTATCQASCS

human glucagon receptor (human), sequence (P47871 26-477): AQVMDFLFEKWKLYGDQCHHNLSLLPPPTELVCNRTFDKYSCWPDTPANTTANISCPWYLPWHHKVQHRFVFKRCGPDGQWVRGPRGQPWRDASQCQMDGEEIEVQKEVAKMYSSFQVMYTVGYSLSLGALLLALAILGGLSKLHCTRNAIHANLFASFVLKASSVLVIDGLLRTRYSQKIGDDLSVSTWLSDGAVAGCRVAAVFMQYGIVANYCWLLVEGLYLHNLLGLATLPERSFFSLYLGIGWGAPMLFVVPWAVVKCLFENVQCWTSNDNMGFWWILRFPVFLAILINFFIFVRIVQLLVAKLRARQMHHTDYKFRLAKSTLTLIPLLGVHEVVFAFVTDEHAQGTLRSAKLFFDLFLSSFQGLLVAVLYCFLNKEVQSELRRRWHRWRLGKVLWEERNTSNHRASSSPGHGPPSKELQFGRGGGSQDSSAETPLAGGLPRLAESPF
hGLP-1R, sequence (P43220 24-463): as the sequence (P43220 24-463) above
Pro-Link-tagged Human GLP-1R (human), sequence (P43220 24-463): as above

Binder: Y[Aib]QGT[αMePhe(2-F)]TSDYSKLLDKIAQK([AEEA-γGlu-C20 diacid])AFIEYLLEGGPSSGEPPPSEG-NH2 [Example 295]
- % Stimulation Max [1]: 44.1%
- hGLP1R β-arrestin Rel EC50 [1]: 16.4 nM
- Relative cAMP EC50 (hGLP-1R): 0.831 nM
- cAMP Rel EC50 (in the presence of 1% HSA) (hGLP-1R): 232 nM
- Relative cAMP EC50 [2]: 0.126 nM
- cAMP Rel EC50 (in the presence of 1% HSA) [2]: 61.1 nM
- GLP1R Internalization EC50 [4]: 31.4 nM
- Internalization % TOP [4]: 88.4%
- Relative cAMP EC50 [3]: 2.15 nM
- cAMP Rel EC50 (in the presence of 1% HSA) [3]: 605 nM

Binder: Y[Aib]QGT[αMeF]TSDYSILLDKIAAKNFIEYLVEGGPSSGEPPPSEG-NH2 (not fully specified (residue 20)) [Example 307]
- % Stimulation Max [1]: 70.8%
- hGLP1R β-arrestin Rel EC50 [1]: 9.86 nM
- Relative cAMP EC50 (hGLP-1R): 0.836 nM
- cAMP Rel EC50 (1% HSA) (hGLP-1R): 209 nM
- Relative cAMP EC50 [2]: 0.446 nM
- cAMP Rel EC50 (1% HSA) [2]: 65.3 nM
- Relative cAMP EC50 [3]: 1.68 nM
- cAMP Rel EC50 (1% HSA) [3]: 1880 nM

Binder: [NMeY][Aib]QGT[αMeF]TSDYSILLDKQAAKAFVQWLIAGGPSSGEPPPSEG-NH2 (not fully specified (residue 20)) [Example 301]
- % Stimulation Max [1]: 59.1%
- hGLP1R β-arrestin Rel EC50 [1]: 13.2 nM
- Relative cAMP EC50 (hGLP-1R): 0.641 nM
- cAMP Rel EC50 (1% HSA) (hGLP-1R): 82.4 nM
- Relative cAMP EC50 [2]: 0.722 nM
- cAMP Rel EC50 (1% HSA) [2]: 81.8 nM
- Relative cAMP EC50 [3]: 6.73 nM
- cAMP Rel EC50 (1% HSA) [3]: 1500 nM

Binder: [NMeY][Aib]QGT[αMeF]TSDYSILLDKIAAKAFVQWLIAGGPSSGEPPPSEG-NH2 (not fully specified (residue 20)) [Example 300]
- % Stimulation Max [1]: 40.3%
- hGLP1R β-arrestin Rel EC50 [1]: 15.7 nM
- Relative cAMP EC50 (hGLP-1R): 1.05 nM
- cAMP Rel EC50 (1% HSA) (hGLP-1R): 98 nM
- Relative cAMP EC50 [2]: 0.0975 nM
- cAMP Rel EC50 (1% HSA) [2]: 12.9 nM
- Relative cAMP EC50 [3]: 6.54 nM
- cAMP Rel EC50 (1% HSA) [3]: 976 nM

Binder: Y[Aib]QGTFTSDYSI[αMeL]LDKQAAKAFVEWLLAGGPSSGEPPPSEG-NH2 (not fully specified (residue 20)) [Example 305]
- % Stimulation Max [1]: 58.3%
- hGLP1R β-arrestin Rel EC50 [1]: 23.3 nM
- Relative cAMP EC50 (hGLP-1R): 1.48 nM
- cAMP Rel EC50 (1% HSA) (hGLP-1R): 415 nM
- Relative cAMP EC50 [2]: 1 nM
- cAMP Rel EC50 (1% HSA) [2]: 92.4 nM
- Relative cAMP EC50 [3]: 6.73 nM
- cAMP Rel EC50 (1% HSA) [3]: 1500 nM

B1: Example 298 (peptide)
chain: HXQGTXTSDYSILLDKKAAXAFIEYLIEAGPSSGEPPPSEG
modifications: synthetic construct; SITE 2: note = 2-Aminoisobutyric Acid; SITE 6: note = alpha-methyl-2-fluoro-L-phenylalanine; SITE 17: note = Lysine is chemically modified through conjugation of the epsilon-amino group of the Lysine side chain with (2-[2-(2-Amino-ethoxy)-ethoxy]-acetyl)-(gamma-Glu)-CO-(CH2) 18-
- % Stimulation Max [1]: 86.4%
- hGLP1R β-arrestin Rel EC50 [1]: 3.29 nM
- Relative cAMP EC50 (hGLP-1R): 0.277 nM
- cAMP Rel EC50 (1% HSA) (hGLP-1R): 70.9 nM
- Relative cAMP EC50 [2]: 0.138 nM
- cAMP Rel EC50 (1% HSA) [2]: 41.3 nM
- Relative cAMP EC50 [3]: 1.04 nM
- cAMP Rel EC50 (1% HSA) [3]: 1570 nM

Binder: Y[Aib]QGT[αMePhe(2-F)]TSDYSKLLDKIAQKAFIEYLIEGGPSSGEPPPSEG-NH2 (not fully specified (residue 20)) [Example 304]
- % Stimulation Max [1]: 47.8%
- hGLP1R β-arrestin Rel EC50 [1]: 9.21 nM
- Relative cAMP EC50 (hGLP-1R): 0.551 nM
- cAMP Rel EC50 (1% HSA) (hGLP-1R): 172 nM
- Relative cAMP EC50 [2]: 0.127 nM
- cAMP Rel EC50 (1% HSA) [2]: 48 nM
- Relative cAMP EC50 [3]: 2.31 nM
- cAMP Rel EC50 (1% HSA) [3]: 1720 nM

Binder: [NMeY][Aib]QGT[αMeF]TSDYSILLDKQAAKAFVQWLIEGGPSSGEPPPSEG-NH2 (not fully specified (residue 20)) [Example 302]
- % Stimulation Max [1]: 56.6%
- hGLP1R β-arrestin Rel EC50 [1]: 11.2 nM
- Relative cAMP EC50 (hGLP-1R): 0.621 nM
- cAMP Rel EC50 (1% HSA) (hGLP-1R): 73.6 nM
- Relative cAMP EC50 [2]: 0.7 nM
- cAMP Rel EC50 (1% HSA) [2]: 91.8 nM
- Relative cAMP EC50 [3]: 4.47 nM
- cAMP Rel EC50 (1% HSA) [3]: 1370 nM

Binder: Y[Aib]QGTFTSDYSI[αMeL]LDKK([AEEA-γGlu-C20 diacid])AQRAFIEYLLEGGPSSGEPPPSEG-NH2 [Example 289]
- % Stimulation Max [1]: 47.5%
- hGLP1R β-arrestin Rel EC50 [1]: 5.96 nM
- Relative cAMP EC50 (hGLP-1R): 0.449 nM
- cAMP Rel EC50 (in the presence of 1% HSA) (hGLP-1R): 139 nM
- Relative cAMP EC50 [2]: 0.382 nM
- cAMP Rel EC50 (in the presence of 1% HSA) [2]: 105 nM
- GLP1R Internalization EC50 [4]: 10.9 nM
- Internalization % TOP [4]: 86.5%
- Relative cAMP EC50 [3]: 5.02 nM
- cAMP Rel EC50 (in the presence of 1% HSA) [3]: 1750 nM

B2: Example 288 (peptide)
chain: YXQGTFTSDFSIXLDKKAQXAFIEYLLEGGPSSGEPPPSEG
modifications: synthetic construct; SITE 2: note = 2-Aminoisobutyric Acid; SITE 13: note = alpha-methyl-leucine; SITE 17: note = Lysine is chemically modified through conjugation of the epsilon-amino group of the Lysine side chain with (2-[2-(2-Amino-ethoxy)-ethoxy]-acetyl)-(gamma-Glu)-CO-(CH2) 18-CO2H; SITE 20: n
- % Stimulation Max [1]: 18%
- hGLP1R β-arrestin Rel EC50 [1]: 16.3 nM
- Relative cAMP EC50 (hGLP-1R): 1.89 nM
- cAMP Rel EC50 (in the presence of 1% HSA) (hGLP-1R): 616 nM
- Relative cAMP EC50 [2]: 0.234 nM
- cAMP Rel EC50 (in the presence of 1% HSA) [2]: 59.1 nM
- GLP1R Internalization EC50 [4]: 30.3 nM
- Internalization % TOP [4]: 72.4%
- Relative cAMP EC50 [3]: 5.17 nM
- cAMP Rel EC50 (in the presence of 1% HSA) [3]: 3580 nM

Now from value to binder:

- % Stimulation Max [1]: 39.6%
- hGLP1R β-arrestin Rel EC50 [1]: 19.2 nM
- Relative cAMP EC50 (hGLP-1R): 3.36 nM
- cAMP Rel EC50 (1% HSA) (hGLP-1R): 1080 nM
- Relative cAMP EC50 [2]: 0.113 nM
- cAMP Rel EC50 (1% HSA) [2]: 26.1 nM
- Relative cAMP EC50 [3]: 2.08 nM
- cAMP Rel EC50 (1% HSA) [3]: 2500 nM
Binder: Y[Aib]QGT[αMePhe(2-F)]TSDYSKILDKIAQK([AEEA-γGlu-C20 diacid])AFIEYLLEGGPSSGEPPPSEG-NH2 [Example 311]

- % Stimulation Max [1]: 74.5%
- hGLP1R β-arrestin Rel EC50 [1]: 6.11 nM
- Relative cAMP EC50 (hGLP-1R): 0.926 nM
- cAMP Rel EC50 (1% HSA) (hGLP-1R): 204 nM
- Relative cAMP EC50 [2]: 0.207 nM
- cAMP Rel EC50 (1% HSA) [2]: 42.6 nM
- GLP1R Internalization EC50 [4]: 34 nM
- Internalization % TOP [4]: 91.1%
- Relative cAMP EC50 [3]: 3.47 nM
- cAMP Rel EC50 (1% HSA) [3]: 842 nM
Binder: Y[Aib]QGTFTSDYSI[αMeL]LDKQAAKQFVEWLLA[Aib]GPSSGEPPPSEG (not fully specified (residue 20)) [Example 329]

- % Stimulation Max [1]: 29.7%
- hGLP1R β-arrestin Rel EC50 [1]: 3.76 nM
- Relative cAMP EC50 (hGLP-1R): 0.508 nM
- cAMP Rel EC50 (1% HSA) (hGLP-1R): 140 nM
- Relative cAMP EC50 [2]: 0.398 nM
- cAMP Rel EC50 (1% HSA) [2]: 85.1 nM
- Relative cAMP EC50 [3]: 4.05 nM
- cAMP Rel EC50 (1% HSA) [3]: 1560 nM
Binder: Y[Aib]QGTFTSDYSK[αMeL]LDKK([AEEA-γGlu-C20 diacid])AQQAFVQWLIEGGPSSGEPPPSEG-NH2 [Example 315]

- % Stimulation Max [1]: 47.2%
- hGLP1R β-arrestin Rel EC50 [1]: 6.72 nM
- Relative cAMP EC50 (hGLP-1R): 0.808 nM
- cAMP Rel EC50 (1% HSA) (hGLP-1R): 251 nM
- Relative cAMP EC50 [2]: 0.32 nM
- cAMP Rel EC50 (1% HSA) [2]: 424 nM
- Relative cAMP EC50 [3]: 9.28 nM
- cAMP Rel EC50 (1% HSA) [3]: 3910 nM
Binder: Y[Aib]QGT[αMePhe(2-F)]TSDYSKLLDKQAQK([AEEA-γGlu-C20 diacid])QFIEYLIEGGPSSGEPPPSEG-NH2 [Example 309]

- % Stimulation Max [1]: 41.4%
- hGLP1R β-arrestin Rel EC50 [1]: 16.9 nM
- Relative cAMP EC50 (hGLP-1R): 3.15 nM
- cAMP Rel EC50 (1% HSA) (hGLP-1R): 477 nM
- cAMP Rel EC50 (1% HSA) [2]: 237 nM
- Relative cAMP EC50 [3]: 14.2 nM
- cAMP Rel EC50 (1% HSA) [3]: 4950 nM
Binder: Y[Aib]QGTFTSDYSI[αMeL]LDKIAAK([AEEA-AEEA-γGlu-C20 diacid])[Orn]FVQYLIAGGPSSGEPPPSEG-NH2 [Example 308]
